Laboratory results: patent publication US20120027722A1 (MEDICAL RESEARCH COUNCIL, published 2012)
Read-outs that look alike come from different tables or passages of the source. No end group written: not given here.

Assays:
[1] = molecular target: T1, E2 peptide C2 (Hepatitis C virus, genotype 1a (Table 5), not fully specified (residue 16, C-terminus)); experiment: peptide ELISA: biotinylated peptide on streptavidin plate, COS7 supernatant, normalised as percentage of H6 binding
T1 peptide: QLINTNGSWHVNGSGK

[2] = molecular target: T2, AP33 mimotope peptide H6; experiment: peptide ELISA: biotinylated peptide on streptavidin plate, COS7 supernatant, anti-human kappa HRP, OD 655 nm
T2 construct: captured on streptavidin plates; also called mimotope H6; H6 peptide
T2 peptide: VELRNLGGTWRPGSGK-biotin

[3] = molecular target: HCV E1E2 glycoproteins, genotype 3a isolate F4/2-35 (on HCVpp) (Hepatitis C virus genotype 3a (F4/2-35)); experiment: cell-based or functional assay
[4] = molecular target: HCV E1E2 glycoproteins, isolate 4.21.16 (on HCVpp) (Hepatitis C virus genotype 4 (4.21.16)); experiment: cell-based or functional assay
[5] = molecular target: HCV E1E2 glycoproteins, genotype 2a isolate JFH1 (on HCVpp) (Hepatitis C virus genotype 2a (JFH1), UniProt Q99IB8 192-383; Q99IB8 384-750); experiment: cell-based or functional assay
[6] = molecular target: HCV E1E2 glycoproteins, isolate 2B1.1 (on HCVpp) (Hepatitis C virus genotype 2 (2B1.1)); experiment: cell-based or functional assay
[7] = molecular target: HCV E1E2 glycoproteins, isolate 2A2.4 (on HCVpp) (Hepatitis C virus genotype 2 (2A2.4)); experiment: cell-based or functional assay
[8] = molecular target: HCV E1E2 glycoproteins, isolate 6.5.8 (on HCVpp) (Hepatitis C virus genotype 6 (6.5.8)); experiment: cell-based or functional assay
[9] = molecular target: HCV E1E2 glycoproteins, isolate 1B5.23 (on HCVpp) (Hepatitis C virus genotype 1 (1B5.23)); experiment: cell-based or functional assay
[10] = molecular target: HCV E1E2 glycoproteins, isolate 1A20.8 (on HCVpp) (Hepatitis C virus genotype 1 (1A20.8)); experiment: cell-based or functional assay
[11] = molecular target: HCV E1E2 glycoproteins, isolate 5.15.11 (on HCVpp) (Hepatitis C virus genotype 5 (5.15.11)); experiment: cell-based or functional assay
[12] = molecular target: T3, E2 peptide B1 (Hepatitis C virus, genotype 2b (Table 5)); experiment: peptide ELISA, COS7 supernatants, normalized to H6 binding
[13] = molecular target: Peptide D3
[14] = molecular target: T3, E2 peptide B1; experiment: peptide ELISA: biotinylated peptide on streptavidin plate, COS7 supernatant, anti-human kappa HRP, OD 655 nm
[15] = molecular target: T2, AP33 mimotope peptide H6; experiment: as above
[16] = molecular target: T4, Peptide D3; experiment: as above
T4 construct: member of the group m28

[17] = molecular target: T2, AP33 mimotope peptide H6; experiment: as above
[18] = molecular target: T3, E2 peptide B1; experiment: as above; remark: listed apart in the source
[19] = molecular target: T2, AP33 mimotope peptide H6; experiment: as above
[20] = molecular target: T4, Peptide D3; experiment: as above; remark: listed apart in the source
[21] = molecular target: T2, AP33 mimotope peptide H6; experiment: as above

Chain of HCV E1E2 glycoproteins, genotype 2a isolate JFH1 (on HCVpp) (Q99IB8 192-383 limits assumed, chain 1 of 2): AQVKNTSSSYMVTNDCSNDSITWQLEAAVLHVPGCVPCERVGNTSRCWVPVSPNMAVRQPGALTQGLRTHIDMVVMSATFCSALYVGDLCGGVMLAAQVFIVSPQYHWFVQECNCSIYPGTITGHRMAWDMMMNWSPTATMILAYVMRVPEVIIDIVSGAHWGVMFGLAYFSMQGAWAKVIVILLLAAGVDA
Chain of HCV E1E2 glycoproteins, genotype 2a isolate JFH1 (on HCVpp) (Q99IB8 384-750 limits assumed, chain 2 of 2): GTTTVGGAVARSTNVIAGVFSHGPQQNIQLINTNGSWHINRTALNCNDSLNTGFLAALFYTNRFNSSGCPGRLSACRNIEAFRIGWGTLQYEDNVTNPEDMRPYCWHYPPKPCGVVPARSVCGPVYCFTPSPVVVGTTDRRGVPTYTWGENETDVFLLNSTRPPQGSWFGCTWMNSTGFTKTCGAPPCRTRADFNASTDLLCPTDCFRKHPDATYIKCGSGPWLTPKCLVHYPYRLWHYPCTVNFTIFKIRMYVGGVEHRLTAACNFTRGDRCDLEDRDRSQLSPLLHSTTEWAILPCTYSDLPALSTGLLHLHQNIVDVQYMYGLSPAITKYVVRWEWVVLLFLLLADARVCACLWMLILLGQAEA

B1: chimeric AP33 antibody (Vh/Vl) (antibody, V domains shown)
VH: EVQLQESGPSLVKPSQTLSLTCSVTGDSITSGYWNWIRKFPGNKLEYMGYISYSGSTYYNLSLRSRISITRDTSKNQYYLQLNSVTTEDTATYYCALITTTTYAMDYWGQGTSVTVS
VL: NIVLTQSPVSLAVSLGQRATISCRASESVDGYGNSFLHWFQQKPGQPPKLLIYLASNLNSGVPARFSGSGSRTDFTLTIDPVEADDAATYYCQQNNVDPWTFGGGTKLEIK
notes: also called Vh/V1; chimeric antibody
- binding result [1]: binds
- binding result [2]: binds
- IC50 of HCVpp infection (Huh-7, luciferase) [3]: 0.48 µg/mL
- IC90 of HCVpp infection (Huh-7, luciferase) [3]: 3.2 µg/mL
- IC50 of HCVpp infection (Huh-7, luciferase) [4]: < 0.137 µg/mL
- IC90 of HCVpp infection (Huh-7, luciferase) [4]: 0.83 µg/mL
- IC50 of HCVpp infection (Huh-7, luciferase) [5]: 1.1 µg/mL
- IC90 of HCVpp infection (Huh-7, luciferase) [5]: 9.31 µg/mL
- IC50 of HCVpp infection (Huh-7, luciferase) [6]: 3 µg/mL
- IC90 of HCVpp infection (Huh-7, luciferase) [6]: > 15 µg/mL
- IC50 of HCVpp infection (Huh-7, luciferase) [7]: 0.88 µg/mL
- IC90 of HCVpp infection (Huh-7, luciferase) [7]: 6.67 µg/mL
- IC50 of HCVpp infection (Huh-7, luciferase) [8]: < 0.137 µg/mL
- IC90 of HCVpp infection (Huh-7, luciferase) [8]: 3.7 µg/mL
- IC50 of HCVpp infection (Huh-7, luciferase) [9]: 1.15 µg/mL
- IC90 of HCVpp infection (Huh-7, luciferase) [9]: 11 µg/mL
- IC50 of HCVpp infection (Huh-7, luciferase) [10]: 1.1 µg/mL
- IC90 of HCVpp infection (Huh-7, luciferase) [10]: 11.5 µg/mL
- IC50 of HCVpp infection (Huh-7, luciferase) [11]: 0.088 µg/mL
- IC90 of HCVpp infection (Huh-7, luciferase) [11]: 1.11 µg/mL

B2: chimeric AP33 heavy chain mutant Y47F with chimeric light chain Vl (antibody, V domains shown)
VH: EVQLQESGPSLVKPSQTLSLTCSVTGDSITSGYWNWIRKFPGNKLEFMGYISYSGSTYYNLSLRSRISITRDTSKNQYYLQLNSVTTEDTATYYCALITTTTYAMDYWGQGTSVTVS
VL: NIVLTQSPVSLAVSLGQRATISCRASESVDGYGNSFLHWFQQKPGQPPKLLIYLASNLNSGVPARFSGSGSRTDFTLTIDPVEADDAATYYCQQNNVDPWTFGGGTKLEIK
notes: also called AP33 Y47F
- binding result [1]: binds
- binding result [12]: binds
- EC50 (read off the curve) [13]: ~0.02 µg/mL

B3: chimeric AP33 heavy chain mutant Y47W with chimeric light chain Vl (antibody, V domains shown)
VH: EVQLQESGPSLVKPSQTLSLTCSVTGDSITSGYWNWIRKFPGNKLEWMGYISYSGSTYYNLSLRSRISITRDTSKNQYYLQLNSVTTEDTATYYCALITTTTYAMDYWGQGTSVTVS
VL: NIVLTQSPVSLAVSLGQRATISCRASESVDGYGNSFLHWFQQKPGQPPKLLIYLASNLNSGVPARFSGSGSRTDFTLTIDPVEADDAATYYCQQNNVDPWTFGGGTKLEIK
notes: also called AP33 Y47W
- binding result [1]: binds
- binding result [12]: binds
- EC50 (read off the curve) [13]: ~0.03 µg/mL

B4: AP33 RH-E/RK2bc (antibody, V domains shown)
VH: QVQLQESGPGLVKPSETLSLTCTVSGDSITSGYWNWIRQPPGRALEYMGYISYSGSTYYNLSLRSRVTISRDTSKNQYSLRLSSVTAADTAMYYCALITTTTYAMDYWGQGTTVTVS
VL: EIVLTQSPSSLSASVGDRVTITCRASESVDGYGNSFLHWFQQKPGKAPKLLIYLASNLNSGVPSRFSGSGSRTDFTLTISSLQPEDFATYYCQQNNVDPWTFGQGTKLEIK
notes: COS7 supernatant
- binding result [14]: no binding (tested: about 800 ng/ml)
- binding result [15]: binds
- binding result [16]: binds

B5: Vh/RK2bc (antibody, V domains shown)
VH: EVQLQESGPSLVKPSQTLSLTCSVTGDSITSGYWNWIRKFPGNKLEYMGYISYSGSTYYNLSLRSRISITRDTSKNQYYLQLNSVTTEDTATYYCALITTTTYAMDYWGQGTSVTVS
VL: EIVLTQSPSSLSASVGDRVTITCRASESVDGYGNSFLHWFQQKPGKAPKLLIYLASNLNSGVPSRFSGSGSRTDFTLTISSLQPEDFATYYCQQNNVDPWTFGQGTKLEIK
notes: COS7 supernatant; also called chimeric AP33 heavy chain Vh with humanized light chain RK2bc
- binding result [2]: binds

B6: humanized AP33 antibody RHI/RK2bc (antibody, V domains shown)
VH: QVQLQESGPGLVKPSETLSLTCTVSGDSITSGYWNWIRKPPGRALEYMGYISYSGSTYYNLSLRSRITISRDTSKNQYSLRLSSVTAADTAMYYCALITTTTYAMDYWGQGTTVTVS
VL: EIVLTQSPSSLSASVGDRVTITCRASESVDGYGNSFLHWFQQKPGKAPKLLIYLASNLNSGVPSRFSGSGSRTDFTLTISSLQPEDFATYYCQQNNVDPWTFGQGTKLEIK
notes: RHI is RHb-h with Q39K; Human IgG1/kappa from vectors pG1D200 and pKN100, COS7 expression; also called RHI (Q39K)/RK2bc
- binding result [17]: binds

B7: humanized AP33 antibody RHA/RK2bc (antibody, V domains shown)
VH: QVQLQESGPGLVKPSETLSLTCTVSGDSISSGYWNWIRQPPGRALEWIGYISYSGSTYYNLSLRSRVTISVDTSKNQFSLRLSSVTAADTAMYYCARITTTTYAMDYWGQGTTVTVS
VL: EIVLTQSPSSLSASVGDRVTITCRASESVDGYGNSFLHWFQQKPGKAPKLLIYLASNLNSGVPSRFSGSGSRTDFTLTISSLQPEDFATYYCQQNNVDPWTFGQGTKLEIK
notes: Human IgG1/kappa from vectors pG1D200 and pKN100, COS7 expression; also called AP33RHA/RK2bc
- binding result [2]: binds

B8: RHA/Vl (humanized heavy chain RHA with chimeric light chain) (antibody, V domains shown)
VH: QVQLQESGPGLVKPSETLSLTCTVSGDSISSGYWNWIRQPPGRALEWIGYISYSGSTYYNLSLRSRVTISVDTSKNQFSLRLSSVTAADTAMYYCARITTTTYAMDYWGQGTTVTVS
VL: NIVLTQSPVSLAVSLGQRATISCRASESVDGYGNSFLHWFQQKPGQPPKLLIYLASNLNSGVPARFSGSGSRTDFTLTIDPVEADDAATYYCQQNNVDPWTFGGGTKLEIK
notes: Human IgG1/kappa from vectors pG1D200 and pKN100, COS7 expression
- binding result [2]: binds

B9: humanized AP33 antibody RH-G/RK2bc (antibody, V domains shown)
VH: QVQLQESGPGLVKPSETLSLTCTVSGDSITSGYWNWIRQPPGRALEYMGYISYSGSTYYNLSLRSRITISRDTSKNQFSLRLSSVTAADTAMYYCALITTTTYAMDYWGQGTTVTVS
VL: EIVLTQSPSSLSASVGDRVTITCRASESVDGYGNSFLHWFQQKPGKAPKLLIYLASNLNSGVPSRFSGSGSRTDFTLTISSLQPEDFATYYCQQNNVDPWTFGQGTKLEIK
- binding result [18]: no binding (tested: about 750 ng/ml)
- binding result [19]: binds
- binding result [20]: binds

B10: humanized AP33 antibody RHb-h/RK2b (antibody, V domains shown)
VH: QVQLQESGPGLVKPSETLSLTCTVSGDSITSGYWNWIRQPPGRALEYMGYISYSGSTYYNLSLRSRITISRDTSKNQYSLRLSSVTAADTAMYYCALITTTTYAMDYWGQGTTVTVS
VL: EIVLTQSPSSLSASVGDRVTITCRASESVDGYGNSFLHWFQQKPGKAPKLLIYLASNLNSGVPSRFSGSGSGTDFTLTISSLQPEDFATYYCQQNNVDPWTFGQGTKLEIK
- EC50 (read off the curve) [21]: ~0.04 µg/mL
- IC50 of HCVpp infection (Huh-7, luciferase) [3]: 1.15 µg/mL
- IC90 of HCVpp infection (Huh-7, luciferase) [3]: 8.3 µg/mL
- IC50 of HCVpp infection (Huh-7, luciferase) [4]: 0.33 µg/mL
- IC90 of HCVpp infection (Huh-7, luciferase) [4]: 3.64 µg/mL
- IC50 of HCVpp infection (Huh-7, luciferase) [5]: 2.7 µg/mL
- IC90 of HCVpp infection (Huh-7, luciferase) [5]: 22.1 µg/mL
- IC50 of HCVpp infection (Huh-7, luciferase) [7]: 1.7 µg/mL
- IC90 of HCVpp infection (Huh-7, luciferase) [7]: 20 µg/mL
- IC50 of HCVpp infection (Huh-7, luciferase) [8]: < 0.41 µg/mL
- IC90 of HCVpp infection (Huh-7, luciferase) [8]: 3.7 µg/mL

B11: RHI/Vl (humanized heavy chain RHI with chimeric light chain) (antibody, V domains shown)
VH: QVQLQESGPGLVKPSETLSLTCTVSGDSITSGYWNWIRKPPGRALEYMGYISYSGSTYYNLSLRSRITISRDTSKNQYSLRLSSVTAADTAMYYCALITTTTYAMDYWGQGTTVTVS
VL: NIVLTQSPVSLAVSLGQRATISCRASESVDGYGNSFLHWFQQKPGQPPKLLIYLASNLNSGVPARFSGSGSRTDFTLTIDPVEADDAATYYCQQNNVDPWTFGGGTKLEIK
notes: as for B8
- binding result [17]: binds
